# Test results from patent publication US20240343811A1 (SHANDONG SIMCERE BIOPHARMACUTICAL, published 2024).
# Where two headings read alike, the source gives them in different places.
# T1: human CD16b (NA2), full length, on FlpinCHO cells (human, UniProt O75015 17-200)
# T1 construct: also called FlpinCHO-human CD16b (NA2)
# T1 chain: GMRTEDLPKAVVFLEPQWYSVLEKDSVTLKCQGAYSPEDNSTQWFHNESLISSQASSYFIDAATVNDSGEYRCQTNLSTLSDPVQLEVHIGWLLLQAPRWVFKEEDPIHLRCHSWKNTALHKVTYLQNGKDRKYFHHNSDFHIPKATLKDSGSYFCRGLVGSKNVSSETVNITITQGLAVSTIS
# T2: human CD16b (NA1), full length, on FlpinCHO cells (human, UniProt O75015 17-200)
# T2 construct: also called FlpinCHO-human CD16b (NA1)
# T2 chain: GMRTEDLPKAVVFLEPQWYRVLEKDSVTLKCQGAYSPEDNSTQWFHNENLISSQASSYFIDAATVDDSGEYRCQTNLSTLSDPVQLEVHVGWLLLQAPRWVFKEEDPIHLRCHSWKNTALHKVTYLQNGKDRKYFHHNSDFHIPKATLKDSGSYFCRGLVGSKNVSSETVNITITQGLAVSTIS
# T3: Human CD16b (SH)-his (human)
# T3 construct: entry holds ECD, linker, His tag and AVI tag
# T3 chain: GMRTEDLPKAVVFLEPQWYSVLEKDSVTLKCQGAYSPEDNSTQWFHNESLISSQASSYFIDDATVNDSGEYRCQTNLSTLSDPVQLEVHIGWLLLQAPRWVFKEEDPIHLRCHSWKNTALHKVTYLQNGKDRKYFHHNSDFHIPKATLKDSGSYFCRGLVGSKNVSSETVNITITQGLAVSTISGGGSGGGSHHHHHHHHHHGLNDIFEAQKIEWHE
# Tests used:
# [1] = biological target: T1, human CD16b (NA2), full length, on …; assay: FACS on FlpinCHO cells
# Procedure, shortened: (§1)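 Trypsin-detached FlpinCHO cells expressing full-length CD16b were blocked in PBS+2% BSA and incubated on ice for 1 hour with antibody at varying concentrations. Binding read by flow cytometry as MFI; EC50 from curve fitting.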
# [2] = biological target: T2, human CD16b (NA1), full length, on …; assay: FACS on FlpinCHO cells
# Procedure, shortened: as §1
# [3] = biological target: T4, human CD16a (158F), full length, on FlpinCHO cells (human, UniProt P08637 17-254); assay: FACS on FlpinCHO cells
# Procedure, shortened: (§2)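 Trypsinised cells in PBS + 2% BSA were incubated on ice for 1 hour with antibody at a range of concentrations. After washes, mean fluorescence intensity was read by flow cytometry. EC50 values were derived by curve fitting of MFI.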
# [4] = biological target: T5, human CD16a (158V), full length, on cells (human, UniProt P08637 17-254); assay: FACS on FlpinCHO cells
# T5 construct: also used as target for the bought Jurkat-NFAT reporter line stably expressing human CD16a (158V); also called FlpinCHO-human CD16a (158V); FlpinCHO-CD16a (158V)
# Procedure, shortened: as §2
# [5] = biological target: T6, cynomolgus monkey CD16, full length, on FlpinCHO cells (cynomolgus monkey, UniProt Q8SPW2 17-254); assay: FACS on FlpinCHO cells
# T6 construct: also called FlpinCHO-cyno CD16; Flipin CHO-cyno CD16
# T6 sequence (Q8SPW2 other isoform, or with tags, fused parts or gaps limits assumed): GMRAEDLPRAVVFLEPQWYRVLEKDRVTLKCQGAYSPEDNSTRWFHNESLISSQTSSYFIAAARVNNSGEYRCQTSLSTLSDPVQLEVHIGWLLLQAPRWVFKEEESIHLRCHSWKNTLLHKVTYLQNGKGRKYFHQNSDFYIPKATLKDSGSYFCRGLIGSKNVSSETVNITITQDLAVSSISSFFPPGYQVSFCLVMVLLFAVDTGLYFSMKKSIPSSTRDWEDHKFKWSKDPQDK
# Procedure, shortened: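 FlpinCHO cells expressing full-length cynomolgus CD16, blocked in PBS/2% BSA at 2×10⁶ cells/ml, incubated with antibody at various concentrations 1 h on ice. Flow cytometry MFI fitted to give EC50.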
# Human CD16b (SH)-his = biological target: T3, Human CD16b (SH)-his; assay: SPR (Biacore), antibody captured on Protein A
# Procedure, shortened: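 Protein A–captured antibody was probed with CD16-his ECD in HBS-EP+ at 25 °C: five 2-fold dilutions from 200 nM, 240 s at 30 μL/min, dissociation up to 600 s. Glycine pH 1.5 regenerated the chip. Apparent KD came from a double-referenced 1:1 Langmuir fit.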
# [6] = biological target: T1, human CD16b (NA2), full length, on …; assay: FACS on FlpinCHO cells
# Procedure, shortened: as §1
# [7] = biological target: T2, human CD16b (NA1), full length, on …; assay: FACS on FlpinCHO cells
# Procedure, shortened: as §1
# [8] = biological target: T4, human CD16a (158F), full length, on …; assay: FACS on FlpinCHO cells; remark: listed apart in the source
# Target sequence in this assay (P08637 17-254 limits assumed): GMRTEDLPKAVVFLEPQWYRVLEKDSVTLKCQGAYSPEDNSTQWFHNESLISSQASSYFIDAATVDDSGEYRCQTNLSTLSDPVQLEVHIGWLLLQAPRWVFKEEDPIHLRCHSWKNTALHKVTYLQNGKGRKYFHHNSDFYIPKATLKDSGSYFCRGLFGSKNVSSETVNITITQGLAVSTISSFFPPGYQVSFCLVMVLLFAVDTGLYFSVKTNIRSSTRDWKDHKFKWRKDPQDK
# [9] = biological target: T5, human CD16a (158V), full length, on …; assay: FACS on FlpinCHO cells; remark: listed apart in the source
# Target sequence in this assay (P08637 17-254 F176V limits assumed): as the sequence (P08637 17-254 limits assumed) above, with F160V counted along it
EC50 [1] [nM],Maximum mean fluorescence intensity [1],EC50 [2] [nM],Maximum mean fluorescence intensity [2],EC50 [3] [nM],Maximum mean fluorescence intensity [3],EC50 [4] [nM],Maximum mean fluorescence intensity [4],EC50 [5] [nM],Maximum mean fluorescence intensity [5],Kd (Human CD16b (SH)-his) [nM],koff (Human CD16b (SH)-his) [s⁻¹],kon (Human CD16b (SH)-his) [M⁻¹ s⁻¹],Maximum mean fluorescence intensity [6],EC50 [7] [nM],Maximum mean fluorescence intensity [7],EC50 [8] [nM],Maximum mean fluorescence intensity [8],EC50 [9] [nM],Maximum mean fluorescence intensity [9],Binder,further results
1.43,56900,1.03,37900,0.28,5670,0.33,6240,0.41,22000,4930,0.193,39100,,,,,,,,VHH11 VHH-Fc antibody (Fc fusion) EVQVVESGGGLAQAGGSLRLSCAVSGITFSSYAMGWYRQDPGKQRELVAAINRFGLTNYADSVKGRFTISRDNAKNTVYLQMTSLKPEDTAVYYCNTGGVYSHPNYYTGTYWGQGTQVTVSSEPKSSDKTHTCPPCPAPEFEGGPSVFLFPPKPKDTLMISRTPEVTCVVVAVSHEDPEVKFNWYVDGVEVHNAKTKPREEQYNSTYRVVSVLTVLHQDWLNGKEYKCKVSNKALPAPIEKTISKAKGQPREPQVYTLPPSREEMTKNQVSLTCLVKGFYPSDIAVEWESNGQPENNYKTTPPVLDSDGSFFLYSKLTVDKSRWQQGNVFSCSVMHEALHNHYTQKSLSLSPGK,
0.96,79100,0.62,58100,0.16,6090,0.21,6680,0.24,22200,1160,0.106,91500,87900,0.7,60500,0.23,8730,0.24,8050,VHH12 VHH-Fc antibody (Fc fusion) QVQLVESGGGLVQAGGSLRLSCAASGITFSSYAMGWYRQAPGKQRELVAAINRFGLTNYADFVKGRFTISRVNAKNTVYLQMTSLKPEDTAVYYCNTGGVYSHPDYYTGTYWGQGTQVTVSSEPKSSDKTHTCPPCPAPEFEGGPSVFLFPPKPKDTLMISRTPEVTCVVVAVSHEDPEVKFNWYVDGVEVHNAKTKPREEQYNSTYRVVSVLTVLHQDWLNGKEYKCKVSNKALPAPIEKTISKAKGQPREPQVYTLPPSREEMTKNQVSLTCLVKGFYPSDIAVEWESNGQPENNYKTTPPVLDSDGSFFLYSKLTVDKSRWQQGNVFSCSVMHEALHNHYTQKSLSLSPGK,
,1930,1.41,33300,0.58,7070,0.66,8110,,,,,,468,0.74,54100,0.61,10200,0.66,9250,VHH06 VHH-Fc antibody (Fc fusion) EVQLVESGGGLVQAGGSLRLSCVASGSTWTTYAVRWYRQAPGKQREWVAFISVDGSTNYPDSVKGRFIVSRDNAKNTVYLQMNSLKPEDTADYICRVGGQYWGQGTQVTVSSEPKSSDKTHTCPPCPAPEFEGGPSVFLFPPKPKDTLMISRTPEVTCVVVAVSHEDPEVKFNWYVDGVEVHNAKTKPREEQYNSTYRVVSVLTVLHQDWLNGKEYKCKVSNKALPAPIEKTISKAKGQPREPQVYTLPPSREEMTKNQVSLTCLVKGFYPSDIAVEWESNGQPENNYKTTPPVLDSDGSFFLYSKLTVDKSRWQQGNVFSCSVMHEALHNHYTQKSLSLSPGK,binding result [1]: no binding (tested: 100 nM)
